Assay results as given in patent US12269859B2, “Synthetic immune receptors and methods of use thereof” (Angeles Therapeutics, Inc., priority 2016, dated 2025).

B1: 101416-A05 (protein)
chain: MALPVTALLLPLALLLHAARPQSVLTQPPSVSGAPGQRVTISCTGSSSNIGAGFDVHWYQQLPGTAPKLLIYGNSNRPSGVPDRFSGSKSGTSASLAITGLQAEDEADYYCQSYDSSLSGYVFGTGTKVTVLGLEEQKLISEEDLGSGEDLKNVFPPEVAVFEPSKAEIAHTQKATLVCLATGFYPDHVELSWWVNGKEVHSGVCTDPQPLKEQPALNDSRYCLSSRLRVSATFWQNPRNHFRCQVQFYGLSENDEWTQDRAKPVTQIVSAEAWGRADCGITSASYHQGVLSATILYEILLGKATLYAVLVSALVLMAMVKRKDSRGRAKRSGSGATNFSLLKQAGDVEENPGPTSMDWIWRILFLVGAATGAHSFEQVQLVQSGAEVKKPGASVKVSCKASGYTFTDYYMHWVRQAPGQRLEWMGWINPNSGGTNYAQKFQDRITVTRDTSSNTGYMELTRLRSDDTAVYYCARSPYSGVLDKWGQGTLVTVSSTREQKLISEEDLGSGIQNPDPAVYQLRDSKSSDKSVCLFTDFDSQTNVSQSKDSDVYITDKCVLDMRSMDFKSNSAVAWSNKSDFACANAFNNSIIPEDTFFPSSDVPCDVKLVEKSFETDTNLNFQNLSVIGFRILLLKVAGFNLLMTLRLWSSRAKRSGSGVKQTLNFDLLKLAGDVESNPGPSRGHMTEYKPTVRLATRDDVPRAVRTLAAAFADYPATRHTVDPDRHIERVTELQELFLTRVGLDIGKVWVADDGAAVAVWTTPESVEAGAVFAEIGPRMAELSGSRLAAQQQMEGLLAPHRPKEPAWFLATVGVSPDHQGKGLGSAVVLPGVEAAERAGVPAFLETSAPRNLPFYERLGFTVTADVEVPEGPRTWCMTRKPGA
modifications: Synthetic Immune Receptor (SIR)
B2: 012417-K04 (protein)
chain: MALPVTALLLPLALLLHAARPLEGKPIPNPLLGLDSTGSGEDLKNVFPPEVAVFEPSKAEIAHTQKATLVCLATGFYPDHVELSWWVNGKEVHSGVCTDPQPLKEQPALNDSRYCLSSRLRVSATFWQNPRNHFRCQVQFYGLSENDEWTQDRAKPVTQIVSAEAWGRADCGITSASYHQGVLSATILYEILLGKATLYAVLVSALVLMAMVKRKDSRGRAKRSGSGATNFSLLKQAGDVEENPGPTSMALPVTALLLPLALLLHAARPQIVLSQSPAILSASPGEKVTMTCRASSSVSYMHWYQQKPGSSPKPWIYATSNLASGVPARFSGSGSGTSYSFTISRVEAEDAATYYCQQWTFNPPTFGGGTRLEIKRTVAAGGGGSGGGGSGGGGSQAYLQQSGAELVRPGASVKMSCKASGYTFTSYNMHWVKQTPRQGLEWIGGIYPGNGDTSYNQKFKGKATLTVGKSSSTAYMQLSSLTSEDSAVYFCARYDYNYAMDYWGQGTSVTVSSASTREQKLISEEDGSGIQNPDPAVYQLRDSKSSDKSVCLFTDFDSQTNVSQSKDSDVYITDKCVLDMRSMDFKSNSAVAWSNKSDFACANAFNNSIIPEDTFFPSSDVPCDVKLVEKSFETDTNLNFQNLSVIGFRILLLKVAGFNLLMTLRLWSSRAKRSGSGVKQTLNFDLLKLAGDVESNPGPSRGHMTEYKPTVRLATRDDVPRAVRTLAAAFADYPATRHTVDPDRHIERVTELQELFLTRVGLDIGKVWVADDGAAVAVWTTPESVEAGAVFAEIGPRMAELSGSRLAAQQQMEGLLAPHRPKEPAWFLATVGVSPDHQGKGLGSAVVLPGVEAAERAGVPAFLETSAPRNLPFYERLGFTVTADVEVPEGPRTWCMTRKPGA
B3: 012517-Q12 (protein)
chain: MALPVTALLLPLALLLHAARPLEGKPIPNPLLGLDSTGSGEDLKNVFPPEVAVFEPSKAEIAHTQKATLVCLATGFYPDHVELSWWVNGKEVHSGVCTDPQPLKEQPALNDSRYCLSSRLRVSATFWQNPRNHFRCQVQFYGLSENDEWTQDRAKPVTQIVSAEAWGRADCGITSASYHQGVLSATILYEILLGKATLYAVLVSALVLMAMVKRKDSRGRAKRSGSGATNFSLLKQAGDVEENPGPTSMALPVTALLLPLALLLHAARPEIVLTQSPGTLSLSPGERATLSCRASSSVPYIHWYQQKPGQAPRLLIYATSALASGIPDRFSGSGSGTDFTLTISRLEPEDFAVYYCQQWLSNPPTFGQGTKLELKRGGGGSGGGGSGGGGSEVQLVQSGAEVKKPGESLKLSCKGSGRTFTSYNMHWVRQMPGKGLEWMGAIYPLTGDTSYNQKSKLQVTISADKSISTAYLQWSSLKASDTAMYYCARSTYVGGDWQFDVWGKGTTVTVSSTREQKLISEEDGSGIQNPDPAVYQLRDSKSSDKSVCLFTDFDSQTNVSQSKDSDVYITDKCVLDMRSMDFKSNSAVAWSNKSDFACANAFNNSIIPEDTFFPSSDVPCDVKLVEKSFETDTNLNFQNLSVIGFRILLLKVAGFNLLMTLRLWSSRAKRSGSGVKQTLNFDLLKLAGDVESNPGPSRGHMTEYKPTVRLATRDDVPRAVRTLAAAFADYPATRHTVDPDRHIERVTELQELFLTRVGLDIGKVWVADDGAAVAVWTTPESVEAGAVFAEIGPRMAELSGSRLAAQQQMEGLLAPHRPKEPAWFLATVGVSPDHQGKGLGSAVVLPGVEAAERAGVPAFLETSAPRNLPFYERLGFTVTADVEVPEGPRTWCMTRKPGA
B4: 030817-F07 (protein)
chain: MALPVTALLLPLALLLHAARPEIVLTQSPGTLSLSPGERATLSCRASSSVPYIHWYQQKPGQAPRLLIYATSALASGIPDRFSGSGSGTDFTLTISRLEPEDFAVYYCQQWLSNPPTFGQGTKLELKRLEIQNPDPAVYQLRDSKSSDKSVCLFTDFDSQTNVSQSKDSDVYITDKCVLDMRSMDFKSNSAVAWSNKSDFACANAFNNSIIPEDTFFPSSDVPCDVKLVEKSFETDTNLNFQNLSVIGFRILLLKVAGFNLLMTLRLWSSRAKRSGSGVKQTLNFDLLKLAGDVESNPGPTSMDWIWRILFLVGAATGAHSFEEVQLVQSGAEVKKPGESLKLSCKGSGRTFTSYNMHWVRQMPGKGLEWMGAIYPLTGDTSYNQKSKLQVTISADKSISTAYLQWSSLKASDTAMYYCARSTYVGGDWQFDVWGKGTTVTVSSTREDLKNVFPPEVAVFEPSKAEIAHTQKATLVCLATGFYPDHVELSWWVNGKEVHSGVCTDPQPLKEQPALNDSRYCLSSRLRVSATFWQNPRNHFRCQVQFYGLSENDEWTQDRAKPVTQIVSAEAWGRADCGITSASYHQGVLSATILYEILLGKATLYAVLVSALVLMAMVKRKDSRGRAKRSGSGATNFSLLKQAGDVEENPGPSRGHMTEYKPTVRLATRDDVPRAVRTLAAAFADYPATRHTVDPDRHIERVTELQELFLTRVGLDIGKVWVADDGAAVAVWTTPESVEAGAVFAEIGPRMAELSGSRLAAQQQMEGLLAPHRPKEPAWFLATVGVSPDHQGKGLGSAVVLPGVEAAERAGVPAFLETSAPRNLPFYERLGFTVTADVEVPEGPRTWCMTRKPGA
B5: 012417-J04 (protein)
chain: MALPVTALLLPLALLLHAARPLEGKPIPNPLLGLDSTGSGEDLKNVFPPEVAVFEPSKAEIAHTQKATLVCLATGFYPDHVELSWWVNGKEVHSGVCTDPQPLKEQPALNDSRYCLSSRLRVSATFWQNPRNHFRCQVQFYGLSENDEWTQDRAKPVTQIVSAEAWGRADCGITSASYHQGVLSATILYEILLGKATLYAVLVSALVLMAMVKRKDSRGRAKRSGSGATNFSLLKQAGDVEENPGPTSMALPVTALLLPLALLLHAARPSTVMTQSPDSLAVSLGERATINCKSSQSNSNDVAWYQQKPGQSPKVLIYFASNRYSGVPDRFSGSGYGTDFTLTISSLQAEDVAVYFCQQDYSSPLTFGAGTKLELKRADAGGGGSGGGGSGGGGSQIQLVQSGSELKKPGASVKVSCKASGYTFTNFGVNWVRQAPGKGLEWMGWINTYTGEPSYAQGFTGRFVFSLDASVSTAYLQISSLKAEDTATYFCTRRTNYYGTSYYYAMDYWGQGTTVTVSSAKTTTREQKLISEEDGSGIQNPDPAVYQLRDSKSSDKSVCLFTDFDSQTNVSQSKDSDVYITDKCVLDMRSMDFKSNSAVAWSNKSDFACANAFNNSIIPEDTFFPSSDVPCDVKLVEKSFETDTNLNFQNLSVIGFRILLLKVAGFNLLMTLRLWSSRAKRSGSGVKQTLNFDLLKLAGDVESNPGPSRGHMTEYKPTVRLATRDDVPRAVRTLAAAFADYPATRHTVDPDRHIERVTELQELFLTRVGLDIGKVWVADDGAAVAVWTTPESVEAGAVFAEIGPRMAELSGSRLAAQQQMEGLLAPHRPKEPAWFLATVGVSPDHQGKGLGSAVVLPGVEAAERAGVPAFLETSAPRNLPFYERLGFTVTADVEVPEGPRTWCMTRKPGA
B6: 022817-T04 (protein)
chain: MALPVTALLLPLALLLHAARPEIVLTQSPATLSLSPGERATLSCRASQSVSSYLAWYQQKPGQAPRLLIYDASNRATGIPARFSGSGSGTDFTLTISSLEPEDFAVYYCQQRSNWPITFGQGTRLEIKLEGKPIPNPLLGLDSTGSGEDLKNVFPPEVAVFEPSKAEIAHTQKATLVCLATGFYPDHVELSWWVNGKEVHSGVCTDPQPLKEQPALNDSRYCLSSRLRVSATFWQNPRNHFRCQVQFYGLSENDEWTQDRAKPVTQIVSAEAWGRADCGITSASYHQGVLSATILYEILLGKATLYAVLVSALVLMAMVKRKDSRGRAKRSGSGATNFSLLKQAGDVEENPGPTSMDWIWRILFLVGAATGAHSFEEVQLVESGGGLVQPDRSLRLSCAASGFTFHDYAMHWVRQAPGKGLEWVSTISWNSGTIGYADSVKGRFTISRDNAKNSLYLQMNSLRAEDTALYYCAKDIQYGNYYYGMDVWGQGTTVTVSSTREQKLISEEDGSGIQNPDPAVYQLRDSKSSDKSVCLFTDFDSQTNVSQSKDSDVYITDKCVLDMRSMDFKSNSAVAWSNKSDFACANAFNNSIIPEDTFFPSSDVPCDVKLVEKSFETDTNLNFQNLSVIGFRILLLKVAGFNLLMTLRLWSSRAKRSGSGVKQTLNFDLLKLAGDVESNPGPSRGHMTEYKPTVRLATRDDVPRAVRTLAAAFADYPATRHTVDPDRHIERVTELQELFLTRVGLDIGKVWVADDGAAVAVWTTPESVEAGAVFAEIGPRMAELSGSRLAAQQQMEGLLAPHRPKEPAWFLATVGVSPDHQGKGLGSAVVLPGVEAAERAGVPAFLETSAPRNLPFYERLGFTVTADVEVPEGPRTWCMTRKPGA

Test system: target antigen-expressing cell line
Test: Jurkat NFAT-GFP assay, coculture with target cell lines expressing the respective target antigen (summary Table 10A)
Assay type: cell-based, human
Set-up: key: The signs +/−, +, 2+ etc. after the name of the cell lines indicate the relative degree of positivity on the Jurkat-NFAT-GFP assay as measured by the % GFP positive cells; +: relative degree of positivity on the Jurkat-NFAT-GFP assay as measured by the % GFP positive cells; 2+: relative degree of positivity on the Jurkat-NFAT-GFP assay as measured by the % GFP positive cells
Settings: relative % GFP positive cells; for NFAT-GFP ASSAY Positive Cell lines: RAJI: SIR-expressing Jurkat-NFAT-GFP cells cocultured with RAJI
How it was run: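 Coculture of SIR-bearing Jurkat NFAT-GFP reporters with target cells, ~1:2 E:T, ~4–18 h. FACS quantified % GFP+ cells, ranked semi-quantitatively against parental Jurkat-NFAT-GFP.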

| Molecule | NFAT-GFP ASSAY Positive Cell lines: RAJI | also measured |
| --- | --- | --- |
| B1 |  | NFAT-GFP ASSAY Positive Cell lines: U266 (SIR-expressing Jurkat-NFAT-GFP cells cocultured with U266): U266 (+) |
| B2 | RAJI (+) |  |
| B3 | RAJI (+) |  |
| B4 | RAJI (+/−) |  |
| B5 | RAJI (+) |  |
| B6 |  | NFAT-GFP ASSAY Positive Cell lines: NALM6 (SIR-expressing Jurkat-NFAT-GFP cells cocultured with NALM6): (2+) |
